According to publication PMC12504095:

Key:
[1] = target: Streptococcus pyogenes alpha-enolase (SEn) (S. pyogenes strain AP53) (UniProt P69949); experiment: SPR; SEn immobilised on CM5 chip; tPA analyte 0-2000 nM in HBS-EP+ pH 7.4; 10 uL/min, 600 s association, 300 s dissociation; affinity (steady-state) fit
[2] = target: Streptococcus pyogenes alpha-enolase (SEn) (S. pyogenes strain AP53) (UniProt P69949); experiment: flow cytometry on DOPG vesicles; SEn-constituted DOPG vesicles (BSA-blocked) incubated with 0.8 uM tPA in PBS for 1 h; mouse anti-tPA and Alexa Fluor 488 anti-mouse IgG
[3] = target: Streptococcus pyogenes alpha-enolase (SEn) (S. pyogenes strain AP53) (UniProt P69949); experiment: cryo-EM structure; SEn reconstituted in DOPG vesicles, extruded to small unilamellar vesicles; octamer in the bilayer

Substance | Kd [1] [nM] | percent DOPG-SEn-tPA complex (FITC-positive vesicles) [2] [%] | stoichiometry N [3]
recombinant human tissue-type plasminogen activator (tPA) (enzyme) | 161 | 70 | 
Streptococcus pyogenes alpha-enolase (SEn) (from UniProt P69949 1-435) (enzyme) |  |  | 8
